T1: recombinant human DKK1 (human, UniProt O94907 32-266)
T1 sequence: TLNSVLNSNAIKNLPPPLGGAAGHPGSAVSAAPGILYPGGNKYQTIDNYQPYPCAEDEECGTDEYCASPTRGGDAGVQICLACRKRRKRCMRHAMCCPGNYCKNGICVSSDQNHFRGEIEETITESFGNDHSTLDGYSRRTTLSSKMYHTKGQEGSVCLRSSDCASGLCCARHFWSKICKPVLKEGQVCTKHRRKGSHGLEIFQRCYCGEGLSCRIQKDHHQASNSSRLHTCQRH


Target: T1, recombinant human DKK1
Test: cell-based or functional assay

| EC50, reactivation of DKK1 inhibited wnt signaling | apparent EC50, TCF/LEF luciferase reporter (SuperTopflash, Kremen) with 10 ng/ml rhDKK1 and Wnt3a conditioned medium | Binder |
| --- | --- | --- |
| < 1 nM | – | anti-DKK1 FAb MOR04910 (Fab, V domains shown) VH: QVQLVESGGGLVQPGGSLRLSCAASGFTFSSYWMSWVRQAPGKGLEWVSGISYSGSNTHYADSVKGRFTISRDNSKNTLYLQMNSLRAEDTAVYYCARMGIDLDYWGQGTLVTVSS VL: DIALTQPASVSGSPGQSITISCTGTSSDVGGFNYVSWYQQHPGKAPKLMIHDGSNRPSGVSNRFSGSKSGNTASLTISGLQAEDEADYYCQSWDVSPITAVFGGGTKLTVLG |
| – | 0.16 nM | anti-DKK1/4 antibody (antibody, V domains shown) VH: QVQLVESGGGLVQPGGSLRLSCAASGFTFSSYWMSWVRQAPGKGLEWVSGISYSGSNTHYADSVKGRFTISRDNSKNTLYLQMNSLRAEDTAVYYCARMGIDLDYWGQGTLVTVSS VL: DIALTQPASVSGSPGQSITISCTGTSSDVGGFNYVSWYQQHPGKAPKLMIHDGSNRPSGVSNRFSGSKSGNTASLTISGLQAEDEADYYCQSWDVSPITAVFGGGTKLTVLG |

Source: patent US20120052070A1 (Novartis, published 2012)
